Changes are numbered by the printed parent chain.

Experiment [1] concerns the target T1, Flag-tagged CD160-TM isoform expressed on HEK cells (human).
T1 construct: In the immunoprecipitation the protein came from a 1% NP40 lysate of these cells; Bands were read as mono-, di- and quadrimeric forms; also called HEK-CD160TM; Flag-tagged CD160TM receptor; not shown: Flag tag
T1 chain: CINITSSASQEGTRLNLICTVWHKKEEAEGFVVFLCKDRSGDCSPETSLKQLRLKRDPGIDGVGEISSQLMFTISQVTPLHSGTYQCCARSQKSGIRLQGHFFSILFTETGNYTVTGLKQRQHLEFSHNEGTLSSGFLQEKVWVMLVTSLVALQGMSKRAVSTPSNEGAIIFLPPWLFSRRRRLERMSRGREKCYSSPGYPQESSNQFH
The experiment in a line: flow cytometry on HEK-CD160TM cells. On the procedure: (§1) CHO and HEK transfected cells were labelled with the anti-CD160-GPI mAb CL1-R2 or BY55, the fully human A12 or B6 antibody or their corresponding isotypic control IgG. […] Cell acquisition was performed on a CytoFlex cytometer and results were analysed with FlowJo software.
(§2) After selection on HEK-CD160TM cells, A12 and B6 specificity for CD160TM isoform was first verified by flow cytometry on both CD160-GPI and CD160TM expressing transfectants. As shown on FIG. 1, a positive labelling was obtained with A12 and B6 antibodies on HEK-CD160TM cells but not on CHO-CD160-GPI cells. Conversely, the anti-CD160-GPI mAb CL1-R2 or BY55 gave a positive labelling only on CD160-GPI-expressing cells, ruling out the possibility that A12 and B6 negativity was linked to the non-expression of CD160-GPI on CHO transfectants.
For orientation: In flow cytometry, cells or beads pass a laser one at a time.

Experiment [2] concerns the target T2, CD160 GPI-anchored isoform expressed on CHO cells (human, UniProt O95971 26-160, GPI anchor at the C terminus end).
T2 construct: also called CHO-CD160-GPI
T2 sequence: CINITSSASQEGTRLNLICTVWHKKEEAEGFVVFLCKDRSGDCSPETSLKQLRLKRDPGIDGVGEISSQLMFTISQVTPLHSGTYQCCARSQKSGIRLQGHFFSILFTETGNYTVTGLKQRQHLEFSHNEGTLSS
The experiment in a line: flow cytometry on CHO-CD160-GPI cells. On the procedure: as §1, §2

Experiment [3] has as its target T3, recombinant soluble CD160-His Tag (human, UniProt O95971 26-160).
T3 construct: also called sCD160; CD160 soluble isoform; not shown: His tag
T3 sequence: T2 sequence
The experiment can be described thus: sandwich ELISA: coated antibody, soluble CD160-His, anti-His-HRP. How it is done:
FIG. 4: sCD160 is recognized by the antibodies CL1-R2, R&D 6700 and RB312 but not A12. 1 ug per well of antibody was coated overnight on a 96 well maxisorb plate. After saturation with PBS-5%BSA, lOng of recombinant soluble CD160-His Tag were added to each well and incubated 2h at room temperature. After washing, revelation was done with anti-His-HRP then TMB substrate.
A general note: An ELISA detects its analyte on a solid surface through an enzyme-linked reagent.

The target of experiment [4] is T4, CD160-TM isoform (CD160 transmembrane isoform) (human).
T4 chain: T1 chain
The experiment can be described thus: flow cytometry on IL2-activated human PBMC, gated CD3-CD56+ NK cells. On the procedure:
as §1
For PBMC, CD160 labelling was performed as above. Following washes and addition of normal mouse serum, cells were incubated with a mix of CD8-FITC, CD56-PCS, CD3-APC and CD4-PC7 mAbs. After cell acquisition, analyses were performed to distinguish the CD3⁺CD4⁺ and CD3⁺CD8⁺ T lymphocytes, and the CD3⁻CD56⁺ NK cells within the lymphocytes population.

Experiment [5] concerns the target T1, Flag-tagged CD160-TM isoform expressed …. The experiment can be described thus: immunoprecipitation from HEK-CD160TM lysate, anti-Flag Western blot, non-reducing. On the procedure:
FIG. 3: Assessment of A12 specificity by immunoprecipitation. Post-nuclear lysates were prepared from HEK-CD160TM cells and subjected to immunoprecipitation with either mouse (mu IgG) or human (hu Ig) isotypic control IgG, chimeric murine A12 (mu A12) or fully human A12 (hu A12) antibody. […] Arrows indicate CD160TM-related signals.
HEK-CD160TM cells, that express a Flag-tagged version of CD160TM isoform, were lysed in 1% NP40 lysis buffer. Post-nuclear lysates were prepared and subjected to immuno-precipitation with the fully human A12 antibody or mouse chimeric A12. Human and mouse IgG were used as negative controls, respectively. Immune complexes were further collected with protein G Sepharose beads. Following washes, non-reducing sample buffer (devoid of reducing agent) was added and samples were finally heat-denatured. Proteins were separated by SDS-10% PAGE, electrically transferred on a nitrocellulose membrane and subjected to immuno-blotting with and anti-Flag mAb plus HRP-coupled goat anti-mouse IgGs. Revelation was performed by enhanced chemiluminescence and images acquired with an ImageQuant LAS device.

For experiment [6], the target named is T3, recombinant soluble CD160-His Tag. The experiment in a line: sandwich ELISA: coated antibody, soluble CD160-His, anti-His-HRP (data not shown).

B1: A12 antibody (fully human A12 antibody) (antibody, human IgG1, V domains shown)
VH: EVQLVESGGSLVKPGGSLRLSCAASGFTFSNYSMNWVRQAPGKGLEWISYIYGSSRYISYADFVKGRFTISRDNATNSLYLQMNSLRAEDTAVYYCVRSYYGGMDVWGRGTLVTVSS
VL: QSVLTQPASVSGSPGQSITISCAGTSSDVGGYYGVSWYQQHPGKAPKLMIYYDSYRPSGVSNRFSGSKSGNTASLTISGLQAEDEADYYCSSSTYYSTRVFGGGTKLEK
notes: Fully human aglycosylated antibody selected by phage display on HEK-CD160TM cells; also called hu A12
Take B1: the binding result is “binds” in experiment [1], “no binding” in experiment [2], “no binding” in experiment [3] and “binds” in experiment [4].

B2: murine chimeric version of A12 antibody (antibody, V domains shown)
VH: B1 VH
VL: B1 VL
notes: also called muA12; mu A12
For the molecule B2, the binding result in experiment [5] is “binds”.

B3: B6 antibody (fully human B6 antibody) (antibody, human IgG1, V domains shown)
VH: B1 VH with S33Y, Y50G, S59N
VL: B1 VL with Y33S, G34Y, S93Y
notes: From the same phage display selection as A12
Regarding B3, the results for the binding result in experiment [1], in experiment [2] and in experiment [6] were “binds”, “no binding” and “no binding”, respectively.
